Assay results as given in a protein production outcome set (Wang et al. 2014).

Test: label from the status in PepcDB records

Sequence | protein production
MYYVIFAQDIPNTLEKRLAVREQHLARLKQLQAENRLLTAGPNPAIDDENPSEAGFTGSTVIAQFENLQAAKDWAAQDPYVEAGVYADVIVKPFKKVF | not failed
NATTLPEALKLMQYIGDAIGTIRDPQELFRTVTDKLRLLFAFDSAVIITIDRERREASVFFEMLRFELPEQLRHQTRSIAGTWLEGHLDDRTVTVASIARDIPSFGADGAPLLWTLHELGMRQIVLSPLRSGGRVIGFLSFVSAEEKLWSDGDKSLLSGVSSSIAIAVSNALAYEELRQREAETSMQLAINNALFTI | not failed
NDQDAIQEKFYPPRFIQVPENMSIDEGRFCRMDFKVSGLPAPDVSWYLNGRTVQSDDLHKMIVSEKGLHSLIFEVVRASDAGAYACVAKNRAGEATFTVQLDVLAKEHKRAPMFIYKPQSKKVLEGDSVKLECQISAIPPPKLFWKRNNEMVQFNTDRISLYQDNTGRVTLLIKDVNKKDAGWYTVSAVNEAGVTTCNTRLDVTARPNQTLPAPKQLRVRPTFSKYLALNGKGLNVKQAFNPEGEFQRLAAQSGLYESEEL | failed
NGADVQVSNIDYRLSRKELQQLLQEAFARHGKVKSVELSPHTDYQLKAVVQMENLQDAIGAVNSLHRYKIGSKKILVSLATGA | not failed
NGDPQWLVQAARTAVLRTYEYGRALLKGLFTDSPFNIDIFDTQLRFVGLNIAERRAGVFQGTEYSGHTMREMAPPGLLDVDALEARQRRVLETGKALIDTEVVGHPVANSPREYVWSESILPLRDPSGRVIALGHVVSDV | failed
NGNPIPMGYSQAVENNVQITNFALFSAAAIGVELCLFDEQNQETRLPMVRTENVWHLAVTGVKTGTEYAFRIHGEFANPQKLILDPYAKAVNGKPDLSSEESRSWFLLSDNRDNAHLAPRAVVIS | failed
NGQSDVKHIGILQYVEHPSLTATRKGFIKELAKEGYKDGKNIKIEYKNAQGDQSNIQSISEKLIKDNKLVLGIATPAAQSLTTVSTETPILFTAVTDPVSAELVKSMKKPEGLATGTSDMSPIKKQVSLLRKVMPKVKRVGIMYTTSERNSEVQVKQAKKIFQEAGIKTSVKGISSTNDVQDTAKSLMSKTEVIFVPTDNIIASSVTLLGNLSKELKVPVVGGSADMVPSGLLFSYGADYEALGRQTARQAVKILKGKDVAKVPSEYPQNLKVVVNEDMAKELGIDVSSIK | not failed
NIILASRSLDKCYAIKESMLKKGLGEIGVEQVDADDTQALVALIQKYKPKVVINVALPYQDLTIMQACLETKTHYIDTANYEHPDLAKFEYKEQWAFDRAYKEVGILGVLGAGFDPGVTNAYVAHAQKHHFDTIHTLDILDCNAGDHKRPFATNFNPEINL | failed
NNQIGFCGVRKNINGNLYLLVYGMPAAINIDPIEKKPILHMYPNSLIYSISTVGCSFACQYCQNYDISQRRNIEGFDYSPEEIVNSAIEDGCRGIAYTYNEPSIFMEFAHDVGILARKRGLINIFVTNGYETPEAVEYSKDFLDAATVDFKGNASNDFYRKYISVPSADPIFDTIKLMKESGIHVEITDLVVPRVGDKLSDARSMLERLISILGYEFPISFLRFHPDYKMMDLPPTPLETLKAHYNLAVSMGLKYVYIGNVPGYYEDTYCPNCHSLLIKRHGFNSSVV | failed
NNTPIGTLRIGCSSTMAQNVLARITAKMLKEYPGLSVNLVTGIPAPDLIADGLDVVIRVGALQDSSLFSRRLGSMPMVLCAAKSYLAQAGNPEKPADLAGHAWLEYSVRPDNEFVIIAPEGISTRLTPQGRFVTNDPMTL | failed
NPQIREEVALDTQTGANPSAEELADGDIQAVAQAANERTGALFVVITDGLGIRLSHPDEERLGEQVSTSFEAAMRGEETMAWETGTLGASARAKVPIFAPDSSVPVGEVSVGFERDSVYSRLPMFLAA | failed
NQQTPTFYVHGFQGSAKSTNTLIAHAEKTAHAHKVLVATVSTSGQVTLTGKWRGRVRNPIIQVVFKNNLAQYDQQSAWLAKVITTVQQQHAFKHYNIVAHSAGCVASVNMLMTQQTTTFPKINKLVTIAGPFDGVVGEDDVANQNSFLTSGQPKYLHAAYELLAAKRNNFPKNVQLLNIVGTLNDGSHSDSLVTNVSARSIKYLLRGRDVDYTEKDFYGAHAQHSQLHENAKVALAVDRFLWHR | failed
NRCTFACVFCQNYDIVYEDDYIVDARELAYIIDVRRRQGSKNVNFVGGNPDQHAHTIAEILLYVESNVPVVWNSNMYHSEELAEVIEDFVDVWLGDFKYGNDECARKYSKVANYWKVVTRNFLRAKENG | failed
